# Laboratory results: the DeepSol protein solubility set
# Assay: soluble on expression in E. coli; label from the status in PepcDB or PDB records
row,Sequence,soluble on expression in E. coli
1,MGSDKIHHHHHHAEKLSDGKVKLGVLTDMTGYYADLAGPGSVVAARMAVEDFGGKVLGKPVELVSADHQLKADVASNIARKWIDEGQVDAIVDLVSSSTAGAVMPVAAEKKRITLLSGPGTTAFTGEKCTRYNVHYTYNNWALANGTGREVVKQGGDSWFFLTADYIFGKSLEEDTTKVVKAAGGKVLGAARYPSPGTTDFSSYLLQAQGSGAKIVGLANAGADTVNSIRQAEEFGVTPKQSLAGLLVFITDVHSLGLEAAKGMYLTTAFYWDLNDETRKWSRRFFQKHGKMPTMVQAGVYSSVMHYLKAVQAAGTDDADAVMAKMRETPVNDFFAKNARIGPDGLLRHDMYLARVKAPKDSKQPWDYYQIVKTIPAAEAFPSVEAQACPLAKR,not soluble
2,MGSDKIHHHHHHAEVDQATKPAEAKYYIAGTITDATTGQELTTAKVTLGDKSVTSSFNEQVNYKAEGYALVVSADGYYPVKRQVYLNQVSDGQTSVATVNVALVSVEAAVIPPVVPPTDPETDINEGEATKVADKAVEVAKPSESTVTDMLAGTTATPEEKKALDETLEMAGGMKVGETTPEVLADGSILAITPVKFTNPIQDAPAMVPYFYNEGCELTGDVKEVAAPVTRADGAVAADIQKAFLSNAAKALNMNAGFVQKIGYTRISVLNGYSILGYTIKGQLVSKKLTFLISGKYYEGIVSYQKSVMIYPNYYSHDSHDSHDSHGFNPNAGGGSND,not soluble
3,MGSDKIHHHHHHAIGFGLSYGTEIESIGLGLKYQYNITNPIRLEPSLNYFIENDNVSMLDINMNLHYLCPVGRSVKLYPLFGFTFSNWMFDLGDGFDIDVDGDHIHIDKDDDNHNECRVGVNIGGGADFALTSSWIMNFELRYQLVSDFDQAVFNLGFAYRF,not soluble
4,MGSDKIHHHHHHAKSYSKAVTKIAGTKNYPIYHKVTKNGPSGKFTSTSYFKYGQIQSKQYVSTKKGNFWNIIVDGRPVGWVSENCFARNTISVANDVSLVKNSDYSFNTRDAINYATDSHGTAIDPDRVQVSQASVSTKATTVNYSYGKAKASVNIDVRSGNDEMGEANVTPKSGFKTTTTWNGGSKGSSRNWNAAHHYTSETTSNTFKSNGLTLRTRLFQPRFVSLGYGQSADKMGQVGVIPEGMTVNGGIFATSMFTSSSDQHGHIVSYNLNTIKSKYAVQNLTTMNWSTFKSYANNIKVSPYIKLGHGQSLGSSSDYIYVMANDNNYNNGPRSEEIIQIRKSDMKINKIWTFRIAENRYIHNATFVGDNTMYALFHNGGHNHYEYWKLTRNGDSWKATEVGATAGSFVSNSPVQGFAYGNGSFFIGFNDNIFKVSENGAAQKHYRFNTGREIEGLSANGSDLYVQFAQRAELTQGRF,not soluble
5,MGSDKIHHHHHHAMSNKPVVLQGQIEATEIRISGKLPGRIDTFLVREGQYVKMGDTLVVINSPEAWAKFQQVNALEDIAKFQNKKIDDGTRRQIVRSVEELWNKSKSDLQLATVTYDRIQALYKDSVVTSQRKDEVEAMYKAAVAAERAAHQQFLLVKDGAQKEDKESARSLVDAARGTVNEVQALLMDARLTAPEDGQISTIYPKRGELVGAGTPIMSLVVLDDCHVVLNVREDYMPYFRMNENFMGDIPALDVKNKAFKINYISPLGSFATWRSTKQTGTYDMKTFEIHALPVEPMEGLRPGMSVLVNLDELK,not soluble
6,MGSDKIHHHHHHAQEERNQGIIWSYLHGWEYGIKAGFSIGGTSPLPLPEEIRKIDSYAPGGLAISIEGNATKWFDTKWGMTVGVRLENKNMTTEATVKNYGMKIINTNGGELQGLWTGGVKTKVKNSYLTIPVVANYKVSKRWKVSAGPYVSYLIERNFSGHVYEGHLRTPDQTGSRVDFTGESIATYDFSDNLRKFQWGLQLGGEWRAFKHLNVYADLTWGLNDIFKKDFDTISFAMYPIYLNIGFGYAF,not soluble
7,MGSDKIHHHHHHAQETIPDVEVSTMDMWVKETRSVSEYLNMPVLHFKDEQVYSETLRQLKNMTENERFTYFQQLGFEGAYILWEQADRELDKIFDMESDDSHLIQEMINTYKDKYSDIFSFNTVDLFDVTPYFTFTDNDLSLLGNIKGYVVIGNSLRGPKYDYPTYDLDEVVSATRAAEPTPIEPGFKGFKDASLTIKNGKYKSTMTIGRIVNGNSFAVEFKTKKKQLFWKKSVKAGYSAMLTMKSSKFNYKNTVFCPYGKEVSILNLPIERVGNVFDAVVENFKSSRGDAKGNQSFHNIRVI,not soluble
8,MGSDKIHHHHHHAQETLRENNGEPTLVERLSNGEIKINSAEMNFQLFTSANAEFVGNELDGMNFKLNRVRLEIKGDVGKWLGYHYRQSFNKYSDPYSLDNLSSSLELAYVNLKARPNLNFTIGKQFVNFGGYEYYVNSIRVREFSEFNNLLTAYQAGISGNWQVSPDHELCFQIVNNRNGNDEDIYPTGLPEGTAKAKIPFMYTVNWNSYYLDKSLQLRYATAVGQQTRKRYSYYFTCGNTYEKGPLLTYLDVMYTRQGIDQHGVVSRLPGTPHTAMNTEYLSIIGDVDYRVHPQWNVYVKGAYETARVYKGNGDFRKGMYRRSWNAQSSVEFFPFKQLDLFVFVLYTYRGVILEKAATRMGAIEPDTHRISLGLVYSIPVF,not soluble
9,MGSDKIHHHHHHAQTKSLHQLQQEFVDLRCGMFIHFNMPTFFNEDWPDPDAAPELFNPVRMDCKQWAKAAKSANMTYGCLTTKHHSGFCIWDTKTTDYSVMSSPFKRDVVKEYADAFRAEGMKVMLYYSILDTHARLRPKCITPQHIEMIKEQLRELLTNYGEITALIIDGWDAPWSRISYDDVPFEDIYRLVKSIQPNCLVMDLNAAKYPAEALFYTDIKSYEQGAGQHISKDTNRLPALSCLPLQQNWFWKESFPTTPVKSPAQMVNDNIIPMGKSYCNFILNVAPNRDGLMDANALKALKEIGKLWKNDGRVATVPEADAPIISSNIAKYQPAEGTWSSDYAIMDFANDDDFGTCWNSNPEVKVPWYSVTFEREKSFNMVVITDRNNDRLQEYRLEYRAGGTWKPLYEGKAPTGLRVKIHRFDTVWGDAVRMTVLNSNGTTSIAEFGVYCERR,not soluble
10,MGSDKIHHHHHHAQYNKVYADITANMLVDMGFENVIWSEDEKERVYVLENTPWRLQGVGLAHAIDRIQKTGLPEKGKSCRIVVLDNNIPQISLIYTANPDSLKAAPGSYAARSAWDATYDLGDSWDKVKKEYRMNSSLFKVDVVVYPELYLKNLIITQIYQVLFNLSPAIEVSFWNGMKLTAQMVFPIYNDGYGPWAGKIHPGMVTLSQSFRLPYRTFARASIGLFNADRYGVDLAVTHHLKDERFSLEGRIGCTGTGSWQKFEYHYGTHQRVTWSLGGSFYWPKYNTQVSLKAEQYLLGEIGGRIDLIRHFRYCSIGFYAMKAQGALKNGGFRFQVALPPYKYKRKNVRVLPSDNWGMSYNAGNERYYYKGYKASPNDNIMQQNQFNPYFIKSELLNF,not soluble
11,MGSDKIHHHHHHARIVYLNHCYPSPKVITYTDNDTIKLGNYEIKQTGWEWGDGSLLKEKCPDYAYDQTDDGSEYPFDSVRVGFITLSVTKVKDDTTSLDLTSLAFEMGTNGDQYDMELFFALNPTLEALEIKLNAGEDVSFVIPYIMDEQQVSKKDWSRVDKMKLYMVLQYYPQKIRLCCN,not soluble
12,MGSDKIHHHHHHASCEDDEVEYAPLAVTRVSTVLDREQGIDQANLAQYIIVQGTGLNAVNSILVNDVQVDLKDAYITSGEITFPIPRVIPGEINNLITLGSGNSTVTAPISVFIPELEVNGMFNEFTPAGDTMKVVGDYFDLYEITTESGQLFFGGKEVKITKSTGNSLSFVLPEDAVMGSKIKLVSPVCGEVTVPGKYMEKGNMLCDFDPFTGWGGSKYVIDGPVPAPYSGYFSRFKINKGDANDWDWNEVTTIAQCAVEYSPEVIADQNKYLLKFEVNTIKPLTKRQIRFYFSQINYDWEPFASGLALNTNGEWKTVSIDLGEMWKGDIPNDGVLQIMGNSWAEDTDICFDNFRIVPKD,not soluble
13,MGSDKIHHHHHHATAPSPDFNEARFRNDIKILSSDAFEGRAPTTAGEKLTLDYLSTAFKAAGLKGTNNGSFLQSVPMVTYNASENQAIRLGNLHPAYRKDIVLGSRHNNQGVEISNAPLVFVGYGIKAPEYDWDDYAGLDMQGKIAVILVNDPGFAAPESGKFKGKAMTYYGRWSYKFEEASRQGALGAIIIHDTAPASYPWSVIENSWTGPQQDLADASQTDSRVQVEGWMTLDTAKALFDEAGLSLDTLSQEAALTPGNHDLKQSADIAFTNSATFTDSYNLVATLPGTDRADEHILFTAHWDHIGKDDSRDGDKIYNGALDNASGVAGIVEIARQFAALDAMGFKNRRSITFIATTGEEQGLLGSRYYAANPLFPIDKTIAVLNLDSTNVFGRTKDFTIVGKGQSQLEDYLVAAAKAQGREAVAEKNPASGGFFRSDHFSFAKLGVSAAFAGGGSIPLDDATATYKAEMQQKMKGCYHNVCDEYRADWDLSGALQDLALYYDVARTLANNEHRPGYYQKSEFYPLRPAN,not soluble
14,MGSDKIHHHHHHCQNHVETMSITNNDAYLLQQTALSSSLGYDIVESLTVEVGPRLAGSPKDIIAVNWAMDKLTHLGFDRVYKEPVQVPIWERGEAKAKITFPVEQPLVITALGGSVATPTTGIQAKIIRFDSLEALKQANPEDVKGRIAFIDQKTERHITGEGYGKSVGGRSKGAVAAAEKGAVAIIIRSIGTDHDRMAHTGVMRYQDGVPKIPAAAMSNPDADLVTAMLRRDPNAILELQMSPKNSGFNTSYNVIAEVTGSSKPNEIVLIGAHLDSWDEGTGAIDDGAGVAIVTAAAKHIQDLPIKPARTVRVVLYAAEEIGLMGGKAYAEAHKAELPLHYIAAESDFGAGRIYQIDTKVNEGVFTKVQNILKPMTLNGVTLGSNQASAGPDISMLPAQGVPVASLRQDGRDYFDYHHTPNDTLDKIDPAALAQNVAAYAQFAYLMANSNIVLTPLASEIK,not soluble
15,MGSDKIHHHHHHDAPLEQALTLAGDNRKELQQVLGHYEGDSLKHKAACFLIENMIGKGTIRYLLRESDSCYIQQEPEPDLTCITADYLIENIDLAFEVWQKYPWCKQLSFREFCRNILPYRLKQEPLDRWRSYYYTRYKMTVDSLARAGATMREIVFFFNSQHGKKYLHDAAKIPGDFSIELIEKLGGGTCDHLALNAVQLMRAVGIPLNLDILPYHGKVNGGHAYNSFTDENGKFFYFSPYEREPERNQWIAPLVQRVCYERQPEPKIGRNRWNTQLVNRLLKEVTDEYYLSDSVRLPVHTSDTVAYIATFNRGAFKVVSQGRVESNSVLHRVLPYGLLYFQMADKKGKLVPTGNPFVMTPDSIHFITPIRQTTVLNGILTYDVKRVLELGYEAYTLYYWKDGWQPVKEVTSKDSRTLDFGEVPVRSLFLVCGNTYMGRMQRPFLLEDGKPVYY,not soluble
16,MGSDKIHHHHHHENLYFQGMKIALIIENSQAAKNAVVHEALTTVAEPLGHKVFNYGMYTAEDKASLTYVMNGLLAGILLNSGAADFVVTGCGTGMGSMLAANAMPGVFCGLVIDPTDAFLFGQINDGNAISMPYSKGFGWAAELNLQDVYRKLFDGERGLGYPRERAEIMRKNRGILRELKDASCRDMLTVLKTVDQDLLRAAIAGEKFAELFYPNCKDDAIANYLRSLDA,soluble
17,MGSDKIHHHHHHENLYFQGMQLLKELCSIHAPSGNEEPLKDFILEYIRSNAGSWSYQPVIYADNDLQDCIVLVFGNPRTAVFAHMDSIGFTVSYNNHLHPIGSPSAKEGYRLVGKDSNGDIEGVLKIVDEEWMLETDRLIDRGTEVTFKPDFREEGDFILTPYLDDRLGVWTALELAKTLEHGIIAFTCWEEHGGGSVAYLARWIYETFHVKQSLICDITWVTEGVEAGKGVAISMRDRMIPRKKYVNRIIELARQTDIPFQLEVEGAGASDGRELQLSPYPWDWCFIGAPEKDAHTPNECVHKKDIESMVGLYKYLMEKL,soluble
18,MGSDKIHHHHHHENLYFQGMSKVFVNISLSLDGFMAPEGMDMAHFSDPTYKNWGAKWGALMAWALSQQYLREKLKLGTGGETGPVNDMVRHTFERTGAHIMGKRMFEGGERGWPEEAPFHTPVYVLTHERRNPWVRPGGTTFYFVNDGPEQALALAREAAGERDIRISGGANVIQQYLNLGLVDELEIALIPVIFGGGRRLFENLHEPLPQFRIDRVLASPTATHLRYVRL,soluble
